According to patent publication US20250313626A1 (HARBOUR BIOMED SHANGHAI, published 2025):

T1: CD200R1a on PathHunter Jurkat CD200R1a signaling cells (Eurofins DiscoverX, 93-1136C19) (human, UniProt Q8TD46 25-348)
T1 sequence: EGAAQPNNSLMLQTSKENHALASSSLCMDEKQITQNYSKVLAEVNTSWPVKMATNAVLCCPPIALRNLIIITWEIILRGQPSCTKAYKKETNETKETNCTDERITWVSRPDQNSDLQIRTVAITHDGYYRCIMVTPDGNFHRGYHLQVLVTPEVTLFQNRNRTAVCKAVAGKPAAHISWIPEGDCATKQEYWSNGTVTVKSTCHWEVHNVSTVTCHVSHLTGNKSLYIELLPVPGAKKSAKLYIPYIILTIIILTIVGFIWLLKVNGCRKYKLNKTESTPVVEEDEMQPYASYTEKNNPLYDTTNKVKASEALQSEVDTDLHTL

T2: human CD200R1 isoform a on CHOK1 cells (CHOK1/hCD200R1a) (human, UniProt Q8TD46 25-348)
T2 construct: also called CHOK1/CD200R1a
T2 sequence: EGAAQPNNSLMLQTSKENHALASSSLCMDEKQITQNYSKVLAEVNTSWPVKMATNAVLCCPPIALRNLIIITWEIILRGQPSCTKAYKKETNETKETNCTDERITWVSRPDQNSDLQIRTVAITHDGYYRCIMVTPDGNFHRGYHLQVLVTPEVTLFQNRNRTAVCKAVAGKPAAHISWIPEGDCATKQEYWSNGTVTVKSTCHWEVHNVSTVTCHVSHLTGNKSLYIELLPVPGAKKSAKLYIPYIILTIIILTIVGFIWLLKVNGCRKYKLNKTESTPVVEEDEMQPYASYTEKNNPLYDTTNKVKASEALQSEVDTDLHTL

T3: Cynomolgus macaques CD200R1 isoform a on CHOK1 cells (CHOK1/cynoCD200R1a) (Cynomolgus macaques)
T3 chain: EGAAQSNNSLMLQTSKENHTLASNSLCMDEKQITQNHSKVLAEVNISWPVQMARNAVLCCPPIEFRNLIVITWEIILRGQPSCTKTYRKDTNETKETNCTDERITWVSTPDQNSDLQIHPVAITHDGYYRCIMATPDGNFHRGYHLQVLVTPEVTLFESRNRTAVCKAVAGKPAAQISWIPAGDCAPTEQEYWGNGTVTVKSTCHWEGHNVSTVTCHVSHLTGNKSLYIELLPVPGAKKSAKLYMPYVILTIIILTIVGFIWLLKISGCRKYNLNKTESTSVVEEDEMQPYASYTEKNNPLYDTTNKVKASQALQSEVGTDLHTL

T4: human CD200R1a protein (soluble recombinant) (human, UniProt Q8TD46 29-265)
T4 construct: Soluble protein used in BLI; also called human CD200R1 isoform a; not shown: His tag implied by capture on anti-Penta-HIS biosensors
T4 sequence: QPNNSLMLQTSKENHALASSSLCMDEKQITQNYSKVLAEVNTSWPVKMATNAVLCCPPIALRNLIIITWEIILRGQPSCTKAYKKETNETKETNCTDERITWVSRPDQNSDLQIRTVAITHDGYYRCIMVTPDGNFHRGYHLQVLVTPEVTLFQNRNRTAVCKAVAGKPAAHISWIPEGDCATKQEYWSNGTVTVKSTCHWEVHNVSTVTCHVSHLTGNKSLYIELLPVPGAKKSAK


Experiments:
[1] = biological target: T1, CD200R1a on PathHunter Jurkat CD200R1a …; test: cell-based or functional assay
[2] = biological target: T2, human CD200R1 isoform a on CHOK1 cells …; test: flow cytometry, CHOK1/hCD200R1a cells; table beside the curves, head without unit, x axis Log [Ab] (nM)
Method: (§1) This example is intended to investigate the in vitro binding activity of human anti-CD200R1 monoclonal antibodies to human/Cynomolgus macaques CD200R1a expressed on the surface of cells. The anti-CD200R1 antibodies were produced as described in Example 3.4 and the binding experiments at the cell level were performed using CHOK1/hCD200R1a and CHOK1-cynoCD200R1a.
(§2) Briefly, CHOK1/hCD200R1a cells and CHOK1-cynoCD200R1a cells were digested, and collected, and then were resuspended in PBS containing 2% BSA, respectively. The cell density was adjusted to 1×10⁶ cells/mL. The cells were seeded in a 96-well V-bottom plate (Corning, #3894) at 100 μL/well, followed by the addition of test antibodies and reference antibodies in a series diluted concentration, each at 100 μL/well. The cells were incubated away from light at 4° C. for 1 h. Thereafter, the cells in each well were rinsed twice with 100 μL of pre-cooled PBS containing 2% BSA, and centrifuged at 500 g at 4° C. for 5 min, and then the supernatant was discarded. 100 μL of fluorescent secondary antibody (Alexa Fluor 488-conjugated AffiniPure Goat Anti-Human IgG, Fcγ Fragment Specific, Jackson, #109-545-098, diluted in a 1:1000 ratio) was added in each well, and the plate was incubated away from light at 4° C. for 1 h. The cells in each well were rinsed twice with 100 μL of pre-cooled PBS containing 2% BSA, and centrifuged at 500 g at 4° C. for 5 min, and then the supernatant was discarded. Finally, the cells in each well were resuspended in 200 μL of pre-cooled PBS containing 2% BSA, and the fluorescence signal values were read using a BD CantoII flow cytometer.

[3] = biological target: T3, Cynomolgus macaques CD200R1 isoform a …; test: flow cytometry, CHOK1/cynoCD200R1a cells; table beside the curves, head without unit, x axis Log [Ab] (nM)
Method: as §1, §2

[4] = biological target: T4, human CD200R1a protein (soluble …); test: BLI in-tandem competition on His-captured human CD200R1a; row = 1st Ab (400 nM); competitor (2nd Ab) PR007223
Method: (§3) To determine if the anti-CD200R1 antibodies bind to human CD200R1a on different or approximate binding epitopes, epitope competition experiments for the anti-CD200R1 antibodies were performed by the ForteBlio Octet® RED96e platform. […] The in-tandem competition assay format was applied, and it contained two association steps. Firstly, the antigen-loaded biosensors bound to each antibody (i.e., First antibody, 1st Ab) at a saturating concentration of 400 nM for 300 seconds to reach equilibrium and then secondly bound to the competing antibodies (i.e., Second antibody, 2nd Ab) of 400 nM for 300 seconds. The second binding signals are recorded as the 100% signal of each antibody when the first antibodies are replaced by kinetic buffer. All the binding data were analyzed using ForteBlio Data Analysis 11.0 software. The inhibition rate was calculated by the following formula: […]

[5] = biological target: T4, human CD200R1a protein (soluble …); test: BLI in-tandem competition on His-captured human CD200R1a; row = 1st Ab (400 nM); competitor (2nd Ab) PR007973
Method: as §3

[6] = biological target: T4, human CD200R1a protein (soluble …); test: BLI in-tandem competition on His-captured human CD200R1a; row = 1st Ab (400 nM); competitor (2nd Ab) PR007221
Method: as §3

[7] = biological target: T4, human CD200R1a protein (soluble …); test: BLI in-tandem competition on His-captured human CD200R1a; row = 1st Ab (400 nM); competitor (2nd Ab) PR006207
Method: as §3

[8] = biological target: T3, Cynomolgus macaques CD200R1 isoform a …; test: flow cytometry, CHOK1/cynoCD200R1a cells (APC-A Mean); table beside the curves

Binder	IC50 of the inhibition of CD200-induced PathHunter Jurkat CD200R1a luminescence (CHOK1/hCD200 cells as CD200 source); head without unit, x axis Log [Ab] (nM) [1] [nM]	EC50 [2] [µM]	EC50 [3] [µM]	Inhibition ratio (%) [4] [%]	Inhibition ratio (%) [5] [%]	Inhibition ratio (%) [6] [%]	Inhibition ratio (%) [7] [%]	EC50 [8] [µM]	MFI (MAX) [8]
PR005509 (antibody, human IgG1, kappa, L234A L235A, V domains shown) VH: QVQLVESGGGVVQPGRSLRLSCAASGFTFSSYGFHWVRQAPGKGLEWLGLIWSDGSNKYYADSVKGRFTISRDNSKNTLYLQMNSLRAEDTAVYYCARDRIVGAGFDYWGQGTLVTVSS VL: not shown	2.47								
PR005474 (antibody, human IgG1, kappa, L234A L235A, V domains shown) VH: QVQLVESGGGVVQPGRSLRLSCAASAFTFSSYGMHWVRQAPGKGLEWVALIWNDGSNKFYADSVKGRFTISRDNSKNTLFLQMNSLRAEDTAVYYCARDRILGAGFDYWGQGTLVTVSS VL: not shown	7.75	0.00936	0.00334						
PR007973 (antibody, human IgG1, kappa, V domains shown, PTM variant of PR006839 (human IgG1)) VH: QVQLVESGGGVVQPGRSLRLSCAASGFTFSSYGFHWVRQAPGKGLEWLGIIWSDASNKYYADSVKGRFTISRDNSKNTLYLQMNSLRAEDTAVYYCARDRIVGEGFDYWGQGTLVTVSS VL: not shown				91.7	103	100	-44.7		
PR006480 (antibody, human IgG1, kappa, L234A L235A, also called PR6480) heavy: not shown light: DIQMTQSPPSLSASVGDRVTITCRASQSISSYLNWFQQKAGKAPKLLISATSNLQSGVPSRFSGSGSGTDFTLTISSLQPEDLATYYCQQSYSSPYTFGQGTKVEIKRTVAAPSVFIFPPSDEQLKSGTASVVCLLNNFYPREAKVQWKVDNALQSGNSQESVTEQDSKDSTYSLSSTLTLSKADYEKHKVYACEVTHQGLSSPVTKSFNRGEC	4.55	0.033	0.00298					0.0195	34600
PR007221 (antibody, human IgG1, kappa, PTM variant of PR006895 (human IgG1)) heavy: not shown light: DIQLTQSPPSLSASVGDRVTITCRASQSISSYLNWFQQKAGKAPKLLISATSNLQSGVPSRFSGSGSGTDFTLTISSLQPEDLATYYCQQTLSSPYTFGQGTKVEIKRTVAAPSVFIFPPSDEQLKSGTASVVCLLNNFYPREAKVQWKVDNALQSGNSQESVTEQDSKDSTYSLSSTLTLSKADYEKHKVYACEVTHQGLSSPVTKSFNRGEC				89	95.6	100	-40.7	0.00737	53300
PR007223 (antibody, human IgG1, kappa, PTM variant of PR006895 (human IgG1)) heavy: not shown light: DIQLTQSPPSLSASVGDRVTITCRASQSISSYLNWFQQKAGKAPKLLISATSNLQSGVPSRFSGSGSGTDFTLTISSLQPEDLATYYCQQTYSSPYTFGQGTKVEIKRTVAAPSVFIFPPSDEQLKSGTASVVCLLNNFYPREAKVQWKVDNALQSGNSQESVTEQDSKDSTYSLSSTLTLSKADYEKHKVYACEVTHQGLSSPVTKSFNRGEC				91.8	99.6	101	-50.2	0.00811	54200
PR002906 (antibody, V domains shown, also called recombinant IgG1 antibody of huDX182) VH: QVQLQESGPGLVKPSETLSLTCTVSGYTITSGYDWSWIRQPPGKGLEWIGYINYGGSTNYKPSLGSRVTISVDTSKNQFSLKLSSVTAADTAVYYCARYNEYKSYIYDWYFDFWGQGTLVTVSS VL: DIQMTQSPSSLSASVGDRVTITCKASKNIRSYLAWYQQKPGKAPKLLIYSGSTLHSGVPSRFSGSGSGTDFTLTISSLQPEDFATYYCQQHHEYPLTFGQGTKVEIKR		0.0148	0.0208					0.0214	26800
